According to doi:10.1101/2023.04.27.538407:

What was measured:
[1] = target: MYPT1-C2 peptide 35, R693 replaced by alanine (human); assay: peptide or protein array
[2] = target: MYPT1-C2 peptide 35, R694 replaced by alanine (human); assay: peptide or protein array
[3] = target: MYPT1-C2 peptide 35, S695 replaced by alanine (human); assay: peptide or protein array
[4] = target: MYPT1 (endogenous, human platelets) (human (endogenous in platelets)); assay: proximity ligation
Chain of MYPT1 (endogenous, human platelets) (human (endogenous in platelets)) (O14974 whole entry): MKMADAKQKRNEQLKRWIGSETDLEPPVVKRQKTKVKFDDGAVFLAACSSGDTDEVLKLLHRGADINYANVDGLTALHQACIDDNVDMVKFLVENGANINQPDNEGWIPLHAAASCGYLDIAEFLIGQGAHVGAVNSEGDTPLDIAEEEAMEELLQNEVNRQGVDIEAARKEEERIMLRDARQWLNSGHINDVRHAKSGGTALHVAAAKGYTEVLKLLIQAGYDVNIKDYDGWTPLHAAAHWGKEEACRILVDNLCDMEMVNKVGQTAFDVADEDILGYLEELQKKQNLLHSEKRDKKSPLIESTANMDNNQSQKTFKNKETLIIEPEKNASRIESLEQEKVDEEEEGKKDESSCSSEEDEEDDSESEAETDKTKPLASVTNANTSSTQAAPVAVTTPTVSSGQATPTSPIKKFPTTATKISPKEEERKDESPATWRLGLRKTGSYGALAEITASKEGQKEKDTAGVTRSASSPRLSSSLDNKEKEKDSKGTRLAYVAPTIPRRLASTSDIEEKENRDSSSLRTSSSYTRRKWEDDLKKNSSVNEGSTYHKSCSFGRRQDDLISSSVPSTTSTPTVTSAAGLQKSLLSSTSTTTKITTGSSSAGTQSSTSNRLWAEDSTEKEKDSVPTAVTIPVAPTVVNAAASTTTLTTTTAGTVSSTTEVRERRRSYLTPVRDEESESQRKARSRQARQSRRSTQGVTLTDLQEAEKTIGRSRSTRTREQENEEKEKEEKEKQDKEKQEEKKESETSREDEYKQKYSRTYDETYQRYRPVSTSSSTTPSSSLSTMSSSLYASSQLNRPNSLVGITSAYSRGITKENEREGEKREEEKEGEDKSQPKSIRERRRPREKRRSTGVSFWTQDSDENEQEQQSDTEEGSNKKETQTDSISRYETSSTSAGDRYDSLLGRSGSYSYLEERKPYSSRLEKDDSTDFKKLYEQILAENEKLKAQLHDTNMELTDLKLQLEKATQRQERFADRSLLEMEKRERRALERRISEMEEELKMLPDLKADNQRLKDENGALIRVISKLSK

Substance	reduction of binding against the non-mutated peptide [1] [%]	reduction of binding against the non-mutated peptide [2] [%]	reduction of binding against the non-mutated peptide [3] [%]	PLA dots per platelet (dots per platelet) [4]
His-tagged PKA-RIIβ (from UniProt P31323 1-418) (natural protein)	50	50	50	
His-tagged PKA-RIβ (from UniProt P31321 1-381) (natural protein)	50	50	50	
PKA-RI (endogenous, human platelets) (from UniProt P10644 1-381) (natural protein)				1.48
PKA-RIIα (endogenous, human platelets) (from UniProt P13861 1-404) (natural protein)				1.01
PKA-RIIβ (endogenous, human platelets) (from UniProt P31323 1-418) (natural protein)				0.97
